Here are results for one substance from US20190085092A1.

This test addresses STn expressing TAG-72 glycoprotein (human tumor-associated glycoprotein 72) (human) (UniProt Q01973). The experiment in a line: flow cytometry on LS174T cells, 5 µg 3E8, detected with mouse anti-human IgG-PE.
UniProt Q01973, sequence (Q01973 30-937 limits assumed): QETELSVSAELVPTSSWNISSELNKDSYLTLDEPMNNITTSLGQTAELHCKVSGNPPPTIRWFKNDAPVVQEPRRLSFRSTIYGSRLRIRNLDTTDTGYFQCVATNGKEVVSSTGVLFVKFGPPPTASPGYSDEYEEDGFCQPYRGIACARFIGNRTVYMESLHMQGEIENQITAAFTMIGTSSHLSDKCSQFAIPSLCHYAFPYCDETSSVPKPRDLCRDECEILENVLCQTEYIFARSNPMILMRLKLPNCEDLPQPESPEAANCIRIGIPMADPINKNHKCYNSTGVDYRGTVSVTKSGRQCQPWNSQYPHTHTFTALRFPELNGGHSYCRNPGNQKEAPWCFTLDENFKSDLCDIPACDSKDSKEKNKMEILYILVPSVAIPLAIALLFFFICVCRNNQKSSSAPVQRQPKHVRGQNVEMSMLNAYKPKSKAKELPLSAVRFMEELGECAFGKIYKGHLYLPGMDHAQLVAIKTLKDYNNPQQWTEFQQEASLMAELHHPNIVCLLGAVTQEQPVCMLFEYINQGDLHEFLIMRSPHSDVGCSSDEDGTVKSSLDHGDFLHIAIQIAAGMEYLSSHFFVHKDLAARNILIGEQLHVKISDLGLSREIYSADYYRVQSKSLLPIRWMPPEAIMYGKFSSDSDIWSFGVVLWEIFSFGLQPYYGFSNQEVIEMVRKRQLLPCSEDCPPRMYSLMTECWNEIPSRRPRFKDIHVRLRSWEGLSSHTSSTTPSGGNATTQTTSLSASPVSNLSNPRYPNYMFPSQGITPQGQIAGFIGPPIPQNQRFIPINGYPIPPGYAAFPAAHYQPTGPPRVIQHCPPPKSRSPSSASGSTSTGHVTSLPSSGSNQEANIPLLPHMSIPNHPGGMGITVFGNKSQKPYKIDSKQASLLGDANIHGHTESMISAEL

STn specific antibody (3E8) had a percent of cells stained of 98%.
